In US20210393713A1:

Target: Twin-Strep-tagged LY6A, C57BL/6J variant (GPI-anchor truncated, soluble) (mouse (C57BL/6J)) (UniProt P05533)
Assay: ELISA, AAV particles on plate-bound Twin-Strep-tagged LY6A; apparent Kd from a 1:1 fit

Sequence of Twin-Strep-tagged LY6A, C57BL/6J variant (GPI-anchor truncated, soluble) (mouse (C57BL/6J)) (P05533 27-111, change not shown): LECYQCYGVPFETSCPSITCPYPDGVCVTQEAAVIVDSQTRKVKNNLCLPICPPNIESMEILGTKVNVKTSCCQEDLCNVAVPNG

## AAV-PHP.B capsid (AAV9 variant with the TLAVPFK insert)
  Kd: 0.07 nM
